Test results: the supplement of paper PMC11136658

System: peptide library, one residue held at a place counted from the Y acceptor
Experiment: relative phosphorylation of the sub-library (ratio to the mean residue at this position); higher = residue favoured
In short: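 Biotinylated Tyr-centred peptide library mixtures, each fixing one residue at one position from −5 to +5, were incubated with purified recombinant kinases in 384-well plates for 90 min with 50 μM ATP plus γ-32P-ATP. Streptavidin membranes captured the peptides, which were rinsed and quantified by phosphorimaging and ImageQuant. At each position, intensities were divided by the sum of the 18 randomized residues (16 for the Ser/Thr-free library) and multiplied by that number. Each value is phosphorylation relative to the mean randomized residue.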

Sequence of LIMK1, construct: aa285-end, human (P53667 285-647, looked up): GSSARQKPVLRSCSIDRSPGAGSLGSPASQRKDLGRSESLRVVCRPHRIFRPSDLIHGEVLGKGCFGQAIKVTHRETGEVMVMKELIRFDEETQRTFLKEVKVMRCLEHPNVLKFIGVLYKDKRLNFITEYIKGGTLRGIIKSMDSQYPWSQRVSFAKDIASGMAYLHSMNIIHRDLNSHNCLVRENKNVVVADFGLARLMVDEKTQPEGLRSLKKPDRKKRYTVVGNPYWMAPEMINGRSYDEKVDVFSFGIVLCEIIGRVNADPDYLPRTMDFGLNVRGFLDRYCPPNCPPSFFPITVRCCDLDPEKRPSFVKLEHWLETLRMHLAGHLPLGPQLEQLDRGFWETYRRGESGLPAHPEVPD

LIMK1, construct: aa285-end, human (from UniProt P53667)
relative phosphorylation
Conditions | at +1 | at +2 | at +3 | at +4 | at +5 | at -1 | at -2 | at -3 | at -4 | at -5
A fixed | 0.862 | 0.869 | 0.944 | 1.08 | 0.821 | 0.957 | 0.937 | 0.905 | 1.05 | 0.934
D fixed | 0.776 | 0.662 | 0.6 | 0.613 | 0.56 | 0.811 | 0.735 | 0.778 | 0.812 | 0.737
E fixed | 0.728 | 0.669 | 0.66 | 0.544 | 0.532 | 0.672 | 0.689 | 0.68 | 0.763 | 0.813
F fixed | 0.879 | 1.2 | 1.21 | 1.23 | 1.18 | 0.849 | 1.08 | 1.21 | 1.02 | 1.1
G fixed | 1.22 | 0.739 | 0.954 | 0.989 | 0.991 | 1.31 | 1.02 | 1.04 | 1.08 | 1.02
H fixed | 1.06 | 1.07 | 1.11 | 1.1 | 1.06 | 1.06 | 1.02 | 0.955 | 0.953 | 1.09
I fixed | 0.769 | 0.852 | 0.813 | 0.902 | 0.748 | 0.753 | 0.853 | 0.667 | 0.769 | 0.946
K fixed | 1.35 | 1.49 | 1.4 | 1.37 | 1.46 | 1.28 | 1.33 | 1.16 | 1.3 | 1.14
L fixed | 0.738 | 0.856 | 0.829 | 1 | 0.825 | 0.782 | 0.822 | 0.865 | 0.833 | 0.876
M fixed | 0.802 | 0.926 | 0.996 | 0.973 | 0.836 | 0.793 | 0.833 | 0.801 | 0.837 | 0.843
N fixed | 1.09 | 0.92 | 0.945 | 0.797 | 0.838 | 1.01 | 1.26 | 1.29 | 0.885 | 0.902
P fixed | 1.11 | 0.849 | 0.97 | 0.87 | 0.89 | 1.12 | 1.09 | 1.02 | 1.06 | 0.935
Q fixed | 0.961 | 0.921 | 0.865 | 0.74 | 0.849 | 0.888 | 0.846 | 1.13 | 1 | 0.858
R fixed | 1.6 | 1.63 | 1.39 | 1.24 | 1.43 | 1.53 | 1.31 | 1.42 | 1.41 | 1.34
V fixed | 0.713 | 0.979 | 0.782 | 0.907 | 0.754 | 0.81 | 0.86 | 0.819 | 0.807 | 0.837
W fixed | 1.34 | 1.37 | 1.54 | 1.64 | 2.22 | 1.38 | 1.31 | 1.26 | 1.42 | 1.62
pThr fixed | 0.753 | 0.513 | 0.519 | 0.596 | 0.409 | 0.704 | 0.664 | 0.635 | 0.96 | 0.703
pTyr fixed | 0.761 | 0.655 | 0.689 | 0.61 | 0.518 | 1.61 | 0.887 | 1.34 | 0.667 | 0.744

LIMK2, construct: Full length, human (from UniProt P53671)
relative phosphorylation
Conditions | at +1 | at +2 | at +3 | at +4 | at +5 | at -1 | at -2 | at -3 | at -4 | at -5
A fixed | 0.976 | 0.966 | 1.08 | 1.3 | 0.842 | 1.01 | 0.854 | 1.04 | 1.16 | 1.03
D fixed | 0.585 | 0.603 | 0.651 | 0.577 | 0.528 | 0.594 | 0.554 | 0.548 | 0.717 | 0.683
E fixed | 0.556 | 0.664 | 0.635 | 0.693 | 0.554 | 0.615 | 0.56 | 0.529 | 0.643 | 0.723
F fixed | 0.891 | 1.1 | 0.986 | 0.945 | 0.84 | 0.819 | 0.936 | 0.877 | 0.858 | 0.92
G fixed | 0.979 | 1.06 | 1.1 | 1.48 | 1.07 | 1.08 | 1.08 | 1.24 | 1.27 | 1.05
H fixed | 1.33 | 1.11 | 1.25 | 1.39 | 1.13 | 1.05 | 1.18 | 1.14 | 0.993 | 1.13
I fixed | 0.695 | 0.788 | 0.744 | 0.691 | 0.53 | 0.782 | 0.82 | 0.632 | 0.691 | 0.818
K fixed | 1.65 | 1.47 | 1.31 | 1.43 | 1.73 | 1.54 | 1.51 | 1.6 | 1.46 | 1.46
L fixed | 0.739 | 0.931 | 0.795 | 0.891 | 0.749 | 0.896 | 0.86 | 0.865 | 0.815 | 0.849
M fixed | 0.822 | 1.01 | 1.1 | 0.899 | 0.75 | 0.922 | 0.857 | 0.669 | 0.79 | 0.744
N fixed | 0.958 | 0.851 | 0.879 | 0.724 | 1.07 | 1.1 | 1.07 | 1.09 | 0.928 | 0.852
P fixed | 1.23 | 1.31 | 1.33 | 1.4 | 1.13 | 1.28 | 1.26 | 1.33 | 1.19 | 1.15
Q fixed | 1.05 | 0.775 | 0.831 | 0.66 | 1.12 | 0.944 | 0.911 | 1.13 | 0.988 | 0.893
R fixed | 1.79 | 1.28 | 1.3 | 1.19 | 2 | 1.65 | 1.6 | 1.59 | 1.55 | 1.52
V fixed | 0.647 | 0.84 | 0.78 | 0.713 | 0.689 | 0.715 | 0.887 | 0.765 | 0.783 | 0.774
W fixed | 1.1 | 1.23 | 1.22 | 1.02 | 1.28 | 0.986 | 1.05 | 0.96 | 1.16 | 1.4
pThr fixed | 0.62 | 0.618 | 0.541 | 0.618 | 0.406 | 0.623 | 0.566 | 0.539 | 0.717 | 0.671
pTyr fixed | 0.617 | 0.693 | 0.604 | 0.497 | 0.519 | 0.868 | 0.658 | 0.599 | 0.627 | 0.759
